Laboratory results from paper PMC5302818.

T1: BAK1-CFP (Arabidopsis), Q94F62
T1 chain: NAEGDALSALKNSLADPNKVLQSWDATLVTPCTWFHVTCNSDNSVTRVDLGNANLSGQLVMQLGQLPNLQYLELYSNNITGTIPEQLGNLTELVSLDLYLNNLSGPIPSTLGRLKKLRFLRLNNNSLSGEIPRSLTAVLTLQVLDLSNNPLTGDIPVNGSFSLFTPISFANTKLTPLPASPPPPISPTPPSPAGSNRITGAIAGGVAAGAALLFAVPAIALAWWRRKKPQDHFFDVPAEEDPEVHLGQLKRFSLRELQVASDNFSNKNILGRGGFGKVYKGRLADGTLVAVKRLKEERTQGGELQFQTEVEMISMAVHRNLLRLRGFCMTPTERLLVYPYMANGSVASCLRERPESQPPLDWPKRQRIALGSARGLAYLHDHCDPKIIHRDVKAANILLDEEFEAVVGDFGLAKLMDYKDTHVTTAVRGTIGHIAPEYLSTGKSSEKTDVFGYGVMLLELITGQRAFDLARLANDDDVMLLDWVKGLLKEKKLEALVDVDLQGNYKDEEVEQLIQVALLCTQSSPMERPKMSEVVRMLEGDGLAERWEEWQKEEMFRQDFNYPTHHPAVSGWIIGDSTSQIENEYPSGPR

B1: AtRGS1-YFP (natural protein)
chain: MASGCALHGGCPSDYVAVAISVICFFVLLSRSVLPCLIHKAPRTNSSSFWIPVIQVISSFNLLFSIMMSVNLLRFRTKHWWRYCYLWAVWIEGPLGFGLLMSCRITQAFQLYFIFVKKRLPPVKSYIFLPLVLLPWIFGAAIIHATKPLNDKCHMGLQWTFPVAGLHALYVLALIAFTRAVRHVEFRFDELRDLWKGILVSATSIVIWVTAFVLNEIHEEISWLQVASRFVLLVTGGILVVVFFSISSNQPLLSQISLKKRQNFEFQRMGQALGIPDSGLLFRKEEFRPVDPNEPLDKLLLNKRFRHSFMEFADSCYAGETLHFFEEVYEHGKIPEDDSIRRIYMARHIMEKFIVAGAEMELNLSHKTRQEILTTQDLTHTDLFKNALNEVMQLIKMNLVRDYWSSIYFIKFKEEESCHEAMHKEGYSFSSPRLSSVQGSDDPFYQEHMSKSSRCSSPG
B2: AtRGS1-YFP, Q8H1F2 1-459 (natural protein)
chain: B1 chain

Columns and labels:
BIR1-CFP (Arabidopsis) = assay: cross number and brightness (Cross N&B) fluorescence fluctuation analysis; leaf disks of N. benthamiana transiently expressing AtRGS1-YFP with BIR1-CFP or BAK1-CFP; time series of 100 confocal images; SimFCS analysis
[1] = target: T1, BAK1-CFP (Arabidopsis), Q94F62; assay: as above; settings: remark: other sources report otherwise

| Binder | stoichiometry N (BIR1-CFP (Arabidopsis)) | stoichiometry N [1] |
| --- | --- | --- |
| B1 | 1 |  |
| B2 |  | 1 |
